Data on 2 substances can be found in patent US20020065218A1.

Test [1] addresses chimeric receptor consisting of the extracellular domain of mouse VEGFR-2 and the cytoplasmic domain of erythropoietin receptor, on Ba/F3 cells (mouse) (UniProt P35918). In words: cell-based or functional assay.
For test [2], the target named is chimeric receptor consisting of the extracellular domain of mouse VEGFR-3 and the cytoplasmic domain of erythropoietin receptor, on Ba/F3 cells (mouse) (UniProt P35917). Put plainly: cell-based or functional assay.
Sequence of UniProt P35917 (P35917 25-775, change not shown): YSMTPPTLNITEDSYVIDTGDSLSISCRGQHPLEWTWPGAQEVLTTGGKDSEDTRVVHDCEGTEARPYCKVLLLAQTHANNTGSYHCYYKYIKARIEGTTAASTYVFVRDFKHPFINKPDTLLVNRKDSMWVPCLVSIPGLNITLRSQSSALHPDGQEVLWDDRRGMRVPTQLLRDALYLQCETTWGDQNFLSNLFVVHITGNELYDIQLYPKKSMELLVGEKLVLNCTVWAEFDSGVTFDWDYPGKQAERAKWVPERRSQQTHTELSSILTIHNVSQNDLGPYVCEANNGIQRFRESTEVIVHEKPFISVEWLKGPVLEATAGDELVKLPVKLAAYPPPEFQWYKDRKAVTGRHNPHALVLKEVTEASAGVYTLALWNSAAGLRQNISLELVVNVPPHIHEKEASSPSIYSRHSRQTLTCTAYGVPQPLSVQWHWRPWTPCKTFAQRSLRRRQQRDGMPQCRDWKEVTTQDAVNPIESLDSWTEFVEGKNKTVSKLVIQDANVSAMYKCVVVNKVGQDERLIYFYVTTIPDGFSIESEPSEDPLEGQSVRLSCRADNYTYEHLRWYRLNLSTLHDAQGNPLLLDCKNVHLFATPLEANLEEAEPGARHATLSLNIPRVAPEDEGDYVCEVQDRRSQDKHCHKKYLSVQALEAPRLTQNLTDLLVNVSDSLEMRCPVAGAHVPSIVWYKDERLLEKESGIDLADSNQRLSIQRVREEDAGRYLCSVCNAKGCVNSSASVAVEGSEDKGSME

Sequence of UniProt P35918 (P35918 20-762, change not shown): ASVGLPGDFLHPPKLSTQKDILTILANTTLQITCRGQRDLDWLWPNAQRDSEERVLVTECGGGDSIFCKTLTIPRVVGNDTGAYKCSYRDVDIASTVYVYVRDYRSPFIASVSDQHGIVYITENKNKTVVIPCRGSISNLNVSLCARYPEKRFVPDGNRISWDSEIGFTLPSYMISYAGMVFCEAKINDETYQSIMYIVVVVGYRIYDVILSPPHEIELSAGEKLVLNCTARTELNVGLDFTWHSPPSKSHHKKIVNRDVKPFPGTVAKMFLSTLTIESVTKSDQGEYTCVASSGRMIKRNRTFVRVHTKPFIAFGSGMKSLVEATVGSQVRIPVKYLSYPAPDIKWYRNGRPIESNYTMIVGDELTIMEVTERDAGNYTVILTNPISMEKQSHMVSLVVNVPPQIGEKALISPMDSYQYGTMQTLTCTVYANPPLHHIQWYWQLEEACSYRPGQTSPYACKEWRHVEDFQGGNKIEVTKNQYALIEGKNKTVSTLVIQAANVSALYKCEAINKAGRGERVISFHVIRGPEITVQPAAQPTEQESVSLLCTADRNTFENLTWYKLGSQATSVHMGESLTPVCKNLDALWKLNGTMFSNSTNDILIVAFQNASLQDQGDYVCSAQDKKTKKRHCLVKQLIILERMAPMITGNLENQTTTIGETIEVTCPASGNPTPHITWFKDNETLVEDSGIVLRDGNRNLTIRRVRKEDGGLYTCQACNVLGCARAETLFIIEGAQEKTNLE

In turn, “recombinant VEGF-CΔNΔC (from UniProt P49767 103-215) (ligand)” came in with a concentration producing near-maximal survival of Ba/F3-NYK-EpoR cells without IL-3 in test [1] of 50 ng/mL. This substance gave a concentration producing near-maximal survival of Ba/F3 VEGFR-3-EpoR cells without IL-3 in test [2] of 3 ng/mL.
In the same order, the values of “recombinant VEGF-DΔNΔC (from UniProt O43915 93-201) (ligand)” are 500 ng/mL and 500 ng/mL.
